The target in assay [1] is human UBA6 (full-length, amino acid residues 1-1052) (human) (UniProt A0AVT1).
Assay [2] addresses human UBA1 (human) (UniProt P22314). Description: BLI; His-tagged E1 ligands on Anti-Penta-His (His1K) biosensors; analyte BIRC6^UBC or BIRC6^(UBCΔinsertion loop) at 40-3240 nM; 50 mM HEPES, pH 7.4, 150 mM NaCl, 0.05% Tween-20, 10 mM imidazole; 25 °C; steady-state 1:1 fit. (In general: BLI is a label-free optical method that tracks binding on a fibre tip over time.)
Assay [3] addresses oxyester-linked UBA6-Ub conjugate (UBA6 C625S charged with ubiquitin) (human) (UniProt A0AVT1). Described as above.

Chain of human UBA6 (full-length, amino acid residues 1-1052) (human) (A0AVT1 whole entry, the tested form may be a part): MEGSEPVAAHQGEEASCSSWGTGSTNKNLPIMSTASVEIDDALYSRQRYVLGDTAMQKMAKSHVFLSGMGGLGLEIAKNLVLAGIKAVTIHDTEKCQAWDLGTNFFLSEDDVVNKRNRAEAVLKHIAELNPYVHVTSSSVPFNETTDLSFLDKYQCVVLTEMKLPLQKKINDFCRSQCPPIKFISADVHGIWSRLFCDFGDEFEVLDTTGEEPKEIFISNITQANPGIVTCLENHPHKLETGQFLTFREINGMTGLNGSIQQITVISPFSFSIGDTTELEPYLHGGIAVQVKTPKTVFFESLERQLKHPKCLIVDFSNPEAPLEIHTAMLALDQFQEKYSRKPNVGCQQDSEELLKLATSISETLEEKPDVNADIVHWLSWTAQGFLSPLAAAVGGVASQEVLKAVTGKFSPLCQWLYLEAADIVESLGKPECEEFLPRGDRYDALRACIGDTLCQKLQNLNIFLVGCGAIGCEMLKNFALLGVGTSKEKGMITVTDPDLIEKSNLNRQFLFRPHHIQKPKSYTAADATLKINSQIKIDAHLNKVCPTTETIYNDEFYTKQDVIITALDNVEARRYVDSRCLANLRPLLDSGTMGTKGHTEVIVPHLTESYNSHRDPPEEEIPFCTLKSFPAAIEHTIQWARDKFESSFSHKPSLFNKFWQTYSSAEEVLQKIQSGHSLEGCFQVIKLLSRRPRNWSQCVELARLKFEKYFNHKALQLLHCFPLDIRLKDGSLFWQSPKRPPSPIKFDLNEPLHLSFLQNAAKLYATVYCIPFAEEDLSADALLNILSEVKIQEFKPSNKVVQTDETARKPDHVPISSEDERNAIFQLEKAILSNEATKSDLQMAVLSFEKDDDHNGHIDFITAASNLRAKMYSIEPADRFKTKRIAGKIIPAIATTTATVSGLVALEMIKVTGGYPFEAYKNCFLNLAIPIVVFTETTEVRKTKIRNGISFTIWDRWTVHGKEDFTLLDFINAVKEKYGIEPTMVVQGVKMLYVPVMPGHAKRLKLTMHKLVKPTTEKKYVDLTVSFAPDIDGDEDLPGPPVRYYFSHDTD
Chain of UBC domain of BIRC6 (residues 4520-4857) (Q9NR09 4520-4857): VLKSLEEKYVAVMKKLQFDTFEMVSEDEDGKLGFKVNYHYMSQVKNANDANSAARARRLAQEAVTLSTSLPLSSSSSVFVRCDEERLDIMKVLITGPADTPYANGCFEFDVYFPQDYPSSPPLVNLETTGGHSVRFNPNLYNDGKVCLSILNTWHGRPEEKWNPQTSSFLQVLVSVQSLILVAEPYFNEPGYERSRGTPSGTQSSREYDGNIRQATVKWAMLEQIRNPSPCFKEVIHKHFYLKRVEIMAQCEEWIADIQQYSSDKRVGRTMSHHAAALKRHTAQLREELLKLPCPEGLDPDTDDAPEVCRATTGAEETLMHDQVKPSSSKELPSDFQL

For “BIRC6^UBC C-terminal extension mutant (R4745A-R4799A-T4789A) (from UniProt Q9NR09 4520-4857) (domain or fragment)”, the reduction of Ub charging of BIRC6^UBC by UBA6 relative to WT (E1–E2 transthioesterification assay, 2 min) in assay [1] is 50%. Still for that read-out and setting: with “BIRC6^UBC N-helix mutant (R4576A-Q4580A-V4583G) (from UniProt Q9NR09 4520-4857) (domain or fragment)” the figure was 25%; with “BIRC6^UBC N-terminal extension mutant (A4569R) (from UniProt Q9NR09 4520-4857)”, 25%. Consider “BIRC6^UBC Y4711G (from UniProt Q9NR09 4520-4857) (domain or fragment)”, for which, in assay [1], the reduction of BIRC6^UBC~Ub formation by UBA6 relative to WT (E1–E2 transthioesterification assay, 2 min) was determined as 60%. The term Kd denotes a measure of binding affinity in units of concentration. Low values mean a tighter complex, high ones a looser complex. In turn, “BIRC6^UBC with the insertion loop deleted (from UniProt Q9NR09 4520-4857) (domain or fragment)” displayed a Kd in assay [2] of 1.47 µM. In assay [1], “BIRC6^UBC β4 loop mutant (Q4634A) (from UniProt Q9NR09 4520-4857) (domain or fragment)” registered a reduction of Ub charging of BIRC6^UBC by UBA6 relative to WT (E1–E2 transthioesterification assay, 2 min) of 50%. Substance “UBC domain of BIRC6 (residues 4520-4857) (from UniProt Q9NR09 4520-4857) (domain or fragment)” came in with a Kd in assay [3] of 2.41 µM.

Source of the values: PMC13623948.
